Experimental data as given in the supplement of paper PMC10567573.
± gives the standard deviation.

Experiment: protein stability index of a GFP-peptide fusion (GPS, HEK-293T) (PSI 1-6); higher = more stable
[1] = treatment: DMSO, c terminus: a fixed tail appended
[2] = treatment: MLN4924 1 uM, 8 h, c terminus: a fixed tail appended
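Note: 24-mer peptide tiles fused after GFP, lentivirally expressed, FACS-sorted into six equal bins by GFP/DsRed ratio, decoded by Illumina sequencing, PSI is the read-weighted mean bin number.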

Sequence | protein stability index [1] | protein stability index [2] | protein stability index (treatment: DMSO, c terminus: native) | protein stability index (treatment: MLN4924 1 uM, 8 h, c terminus: native)
RIPTCHDKPGTTQIVQLTQQVDTN [DENND6A] | 4.6 ± 0.14 | 4.59 ± 0.14 | – | –
RKHIIEGLKASLERLQLEYVDVVF [KCNAB2] | 2.94 ± 0.58 | 3 ± 0.53 | – | –
RKKDKTWMHTPEALSKHFIPYNAK [GULP1] | 2.82 ± 0.25 | 2.99 ± 0.47 | – | –
RKMSLLKFLAKVNGSDPRSFPLWY [MAGEA10] | 2.38 ± 0.63 | 2.01 ± 0.22 | – | –
RKSMLDAGPDSWGSDAEQSTSGQP [LCOR] | 5.21 ± 0.091 | 5.15 ± 0.24 | – | –
RLCLVCGDIASGYHYGVASCEACK [ESRRG] | 4.15 ± 0.12 | 4.21 ± 0.18 | – | –
RLHLAFKRQVPTEQARAYAEKNCM [RAB40C] | 2.98 ± 0.15 | 3.1 ± 0.26 | – | –
RLKRTRLGLDDFESLKVIGRGAFG [STK38L] | 2.49 ± 0.22 | 2.7 ± 0.31 | – | –
RLPCSFVTLALLGSYTVQSELGDY [EPB41L3] | 2.91 ± 0.56 | 2.48 ± 0.35 | – | –
RLPESVERLTGVSISQVNHKPLRT [FLOT1] | 4.06 ± 0.13 | 4.16 ± 0.32 | – | –
RLPTDSHFPYDLHLRSQSLTMQDE [NEUROD6] | 4.32 ± 0.14 | 4.34 ± 0.16 | – | –
RLSTSPVRLAARQEDAPMIEPLVP [EPB41L3] | 4.6 ± 0.18 | 4.63 ± 0.43 | – | –
RNVRFSDEGGFTCFFRDHSYQEEA [MOG] | 3.54 ± 0.35 | 3.75 ± 0.59 | – | –
RPRTRKVKSVSPQGNSVDRMAAPR [NCF4] | 4.85 ± 0.15 | 4.795 ± 0.046 | – | –
RQDADAWTLYKILDSCKQLTLAQG [SMG5] | 2.29 ± 0.26 | 2.32 ± 0.083 | – | –
RQGNPSWKKQQKCDECGKIFSQSS [ZNF396] | 3.57 ± 0.33 | 3.92 ± 0.11 | – | –
RQIIKLNRRLQLLEEENKERAKRE [MFF] | 3.81 ± 0.36 | 4.18 ± 0.23 | – | –
RRDEQDDDDKGDSKETRLTLMEEV [GOLPH3] | 5.58 ± 0.23 | 5.51 ± 0.2 | – | –
RRDGKWQNVHFHRSGSPTVPIKPP [CAMK2D] | 3.32 ± 0.27 | 3.54 ± 0.4 | – | –
RRGIALIFNHERFFWHLTLPERRG [CASP6] | 2.75 ± 1.6 | 2.04 ± 0.68 | – | –
RRKQRYWPFSMDCTGTEAHISSCK [LOXL2] | 3.17 ± 0.49 | 3.52 ± 0.57 | – | –
RRLEQRWGFGLEELYGLALRFFKE [ACBD3] | 2.53 ± 0.8 | 2.31 ± 0.63 | – | –
RRPEDQELESLSAIEAELEKVAHQ [CHGA] | 5.15 ± 0.09 | 5.3 ± 0.24 | – | –

Sequence | protein stability index [1] | protein stability index [2] | protein stability index (treatment: DMSO, c terminus: native) | protein stability index (treatment: MLN4924 1 uM, 8 h, c terminus: native)
RRYLEKSIKMGKRNGLHLPEQVQN [NLN] | 3.2 ± 0.42 | 3.23 ± 0.23 | – | –
RSDGKTCAKLDSCALGDHGCEHSC [MATN2] | 4.54 ± 0.31 | 4.59 ± 0.32 | – | –
RSRIEEQSQLICILKRRSDEALER [CCDC89] | 3.86 ± 0.12 | 3.76 ± 0.23 | – | –
RSSALWSEMLDITMKESLTTREIR [NET1] | 3.13 ± 0.23 | 3.23 ± 0.23 | – | –
RSSGSEGTPADTGDLSPGHGASAP [PWWP2B] | 5.38 ± 0.34 | 5.35 ± 0.2 | – | –
RVAKKLQSGLVWTNCWLIRELNLP [ALDH8A1] | 2.5 ± 0.38 | 2.37 ± 0.54 | – | –
RVQGGCYRFDSSSCSSEDNLSLVC [DRICH1] | 2.58 ± 0.43 | 2.62 ± 0.32 | – | –
RVYDGREILTCGRDGEPEPMQKLQ [RBBP5] | 4.02 ± 0.38 | 3.94 ± 0.31 | – | –
RWASAPPLYTLIDVLKYSYVRLVC [ZSWIM9] | 2.6 ± 0.45 | 3.01 ± 0.74 | – | –
RWETSSWSECSRTCGEGYQFRVVR [ADAMTSL2] | 2.5 ± 0.84 | 2.21 ± 0.35 | – | –
RWNPWSTEVPYATFTEHPMKYTSE [TPRG1] | 3 ± 0.6 | 2.74 ± 0.24 | – | –
RYDHGTFFPMGDEGASSQIGRAAG [HDAC6] | 4.24 ± 0.37 | 4.13 ± 0.22 | – | –
RYHNSHPLRERARKLSQGILIIRF [YJU2B] | 3.08 ± 0.35 | 2.67 ± 0.45 | – | –
SAASSAAAGEPLECPTCGHSYNVT [RNF208] | 4.87 ± 0.27 | 4.77 ± 0.24 | – | –
SAASTSFQPQPVQPQQGYIPPMAQ [ZNF207] | 4.3 ± 0.17 | 4.38 ± 0.1 | – | –
SAHRALYRRHVLGIVLQGPALCFA [TMEM175] | 2.71 ± 0.62 | 2.58 ± 0.62 | – | –
SAMAENILAAACESETRKAAKRMR [NOL4L] | 4.32 ± 0.2 | 4.69 ± 0.46 | – | –
SAQNGLASSLPAEVHSLTLSPPEQ [PLAGL1] | 5 ± 0.15 | 5.03 ± 0.22 | – | –
SCAPSASIPKLKLTRPVPAGADLP [PWWP2B] | 3.21 ± 0.25 | 3.35 ± 0.27 | – | –
SCEACKAFFKRTIQGNIEYSCPAT [ESRRG] | 2.46 ± 0.25 | 2.64 ± 0.37 | – | –
SCSEICYTFIIVPKMLVDLLSQKK [OR10K2] | 2.91 ± 0.77 | 2.71 ± 0.79 | – | –
SDLGLLRLCTWLLALSPDLSLSNA [FANCE] | 3.08 ± 0.33 | 3.17 ± 0.47 | – | –
SDMDRNKTILGNAHDNSEELERAR [ANKRD44] | 5.58 ± 0.16 | 5.57 ± 0.3 | – | –

Sequence | protein stability index [1] | protein stability index [2] | protein stability index (treatment: DMSO, c terminus: native) | protein stability index (treatment: MLN4924 1 uM, 8 h, c terminus: native)
SEDRTVRVWLKRDSGQYWPSVYHA [WDFY2] | 2.27 ± 0.12 | 2.37 ± 0.21 | – | –
SEEYRAPRPQSEESWDEEDKRNYP [CHGB] | 5.47 ± 0.19 | 5.42 ± 0.3 | – | –
SELSEHLRDPLTSLSHTELEAAEV [FCHSD1] | 5.22 ± 0.16 | 5.32 ± 0.13 | – | –
SETDFETEPETAPTTEPETEPEDD [GNAS] | 5.69 ± 0.19 | 5.581 ± 0.055 | – | –
SFALYLAGFCMFVLSLVKKHYRLQ [CDS1] | 2.25 ± 0.36 | 2.04 ± 0.44 | – | –
SFANDRENYDIIKTYHYLYLAMLE [FEM1B] | 2.44 ± 1.1 | 2.33 ± 0.61 | – | –
SFLFLGCSHSFLLAVMGYDRYIAI [OR10K2] | 3.14 ± 0.21 | 2.83 ± 0.59 | – | –
SFSEEGAVGYSSDSETLDLEEAEG [NFE2L1] | 5.75 ± 0.38 | 5.18 ± 0.5 | – | –
SGLSFITFICYVASSASAFLTAPL [CMTM3] | 3.15 ± 0.49 | 2.96 ± 0.3 | – | –
SGYMEGYYTFHFLYFKDKIFNVAI [FBXO3] | 3.36 ± 0.48 | 2.75 ± 0.15 | – | –
SHECKPEGYEFCHNRKVLTIFSAS [PPEF2] | 2.73 ± 0.38 | 2.76 ± 0.17 | – | –
SHEDVCVFKCSVSRETECSRVGKQ [CARM1] | 4.11 ± 0.25 | 4.12 ± 0.31 | – | –
SHLPTRSPSFPEAPDSGRSAPYSA [TBX6] | 4.61 ± 0.21 | 4.52 ± 0.28 | – | –
SHLVIHNLFEGMIWFIVPISCVIC [CDS2] | 3.09 ± 0.45 | 2.81 ± 0.2 | – | –
SHSRERPYKCVQPDCGKAFVSRYK [PLAGL1] | 3.34 ± 0.23 | 3.37 ± 0.17 | – | –
SINAGSWMWLSCSSFFQQFFHCYC [CRY1] | – | 3.4 ± 0.11 | – | –
SINVLLMMHGLKPLSLVKRTDLKD [CEP70] | 2.6 ± 0.6 | 2.59 ± 0.78 | – | –
SIPNLAEVKKKGKMKKLGQAMEED [HDAC6] | 4.8 ± 0.088 | 4.86 ± 0.44 | – | –
SIQVRRKPQHGVCSQLLGNYRCL [SERPINB9P1] | – | – | 2.69 ± 0.51 | 3.09 ± 0.18
SLALDIDRDAEDQNRYLDGMVRAH [BET1L] | 4.24 ± 0.17 | 4.39 ± 0.31 | – | –
SLDTLLEAVESRGGVPGGCVLVPR [SMAD6] | 3.23 ± 0.17 | 3.23 ± 0.25 | – | –
SLENSLREVEARYALQMEQLNGIL [KRT18] | 2.15 ± 0.23 | 2.52 ± 0.26 | – | –
SLGASPTVAGIVGSSYGILQLFSS [MFSD9] | 2.08 ± 0.35 | 2.17 ± 0.47 | – | –

Sequence | protein stability index [1] | protein stability index [2] | protein stability index (treatment: DMSO, c terminus: native) | protein stability index (treatment: MLN4924 1 uM, 8 h, c terminus: native)
SLGYGTNVAATGISQYEDDLPPPP [APBB1IP] | 4.86 ± 0.44 | 4.87 ± 0.42 | – | –
SLKVKFFDLERENACATKEQKNHT [PLD5] | 4 ± 0.36 | – | – | –
SLQLVFGIELMEVDPIGHVYIFAT [MAGEA6] | 2.73 ± 0.21 | 3 ± 0.28 | – | –
SMKASLEGNLAETENRYCVQLSQI [KRT17] | 3.22 ± 0.34 | 3.51 ± 0.39 | – | –
SNAERGTAEPFPRLHNLYSTPRCA [CBY2] | 3.95 ± 0.26 | 4.03 ± 0.14 | – | –
SNNHHLMLEASEWATIEGLVELLQ [ZBED1] | 2.66 ± 0.14 | 2.71 ± 0.48 | – | –
SQSSTYRGTYEQDGRFEKRQGNPS [ZNF396] | 4.74 ± 0.3 | 4.79 ± 0.31 | – | –
SQVQVSLEDYINDRQYDSRGRFGE [HNF4A] | 4.01 ± 0.14 | 4.18 ± 0.14 | – | –
SQVSYFTYIPENNARGASIFSVTA [PCDHGA10] | 2.29 ± 0.56 | 2.39 ± 0.54 | – | –
SRELASMNLDIVDLLKKAKFHHSD [RHOBTB3] | 3.2 ± 0.2 | 3.09 ± 0.23 | – | –
SRELEPELRRRRYEYDHWDAAIHG [ALKBH7] | 3.87 ± 0.25 | 3.92 ± 0.18 | – | –
SRQYDKFLTHFILMNDVIDTSGFP [FBXO33] | 2.51 ± 0.5 | 1.97 ± 0.5 | – | –
SRSQNTDMVQKSVSKTLPSTWSDP [CLINT1] | 3.87 ± 0.28 | 3.98 ± 0.23 | – | –
SSAGSVSPRSTSVTTTSSASVTTT [KRT13] | 5.25 ± 0.15 | 5.23 ± 0.12 | – | –
SSLFDLSVLKLHHSLQQSEPDLRH [SERTAD1] | 3.23 ± 0.21 | 3.29 ± 0.3 | – | –
SSPDDKLLTSPRAINNLVLQGCSS [KLHL14] | 3.99 ± 0.17 | 4.14 ± 0.23 | – | –
SSPDLDDMKLIILANRLCLPHLVA [RHOBTB2] | 2.55 ± 0.5 | 2.44 ± 0.19 | – | –
SSQPQDNSQVHRETEDVDYGETDF [TMEM40] | 5.58 ± 0.26 | 5.64 ± 0.3 | – | –
SSRQEKRPLCAQGDWHSPTLIREK [ELOA2] | 4.05 ± 0.24 | 4.23 ± 0.25 | – | –
STAPGLFLVSTHTGEVRTARALLE [PCDHGC5] | 2.5 ± 0.27 | 2.54 ± 0.31 | – | –
